From article PMC5758809
Residue numbers refer to the chain shown, from its start. Names may count otherwise. One block for each binder: values may come before it.

Assays:
native PP1 (rabbit) = native PP1 (rabbit) (UniProt P62139)
recombinant PP1 = recombinant PP1 (UniProt P62139)

UniProt P62139, sequence (P62139 whole entry): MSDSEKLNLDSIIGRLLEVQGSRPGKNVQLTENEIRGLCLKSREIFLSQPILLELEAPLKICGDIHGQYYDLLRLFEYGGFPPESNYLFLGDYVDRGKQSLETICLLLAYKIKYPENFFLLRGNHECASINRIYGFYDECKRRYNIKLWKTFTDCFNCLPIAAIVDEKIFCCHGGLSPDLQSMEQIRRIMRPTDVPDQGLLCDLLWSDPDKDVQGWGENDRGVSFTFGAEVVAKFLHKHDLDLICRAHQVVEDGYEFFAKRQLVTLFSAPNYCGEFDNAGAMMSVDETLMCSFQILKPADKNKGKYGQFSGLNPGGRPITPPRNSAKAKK

IC50 for inhibition of native PP1 phosphatase activity ([32P]phosphorylase a as substrate) (native PP1 (rabbit)): 19 nM | IC50 for inhibition of recombinant PP1 phosphatase activity ([32P]phosphorylase a as substrate) (recombinant PP1): 980 nM
B1: PKA-thiophosphorylated form of inhibitor-1 (natural protein)
chain: MEQDNSPRKIQFTVPLLEPHLDPEAAEQIRRRRPTPATLVLTSDQSSPEIDEDRIPNPHLKSTLAMSPRQRKKMTRITPTMKELQMMVEHHLGQQQQGEEPEGAAESTGTQESRPPGIPDTEVESRLGTSGTAKKTAECIPKTHERGSKEPSTKEPSTHIPPLDSKGANSV
modifications: thiophosphorylated Thr35

IC50 for inhibition of native PP1 phosphatase activity ([32P]phosphorylase a as substrate) (native PP1 (rabbit)): 240 nM | IC50 for inhibition of recombinant PP1 phosphatase activity ([32P]phosphorylase a as substrate) (recombinant PP1): 553 nM
B2: PKA-thiophosphorylated form of inhibitor-1[I10A;F12A] (natural protein)
chain: B1 chain with I10A, F12A
modifications: thiophosphorylated Thr35
